Experimental data: patent publication US20120244578A1 (Amgen, published 2012)

Assays:
human FcRn = target: T1, human FcRn (human, UniProt P55899 24-297; P61769 21-119, limits assumed); experiment: BIAcore solution competition (FIG. 6)
T1 construct: also called neonatal Fc-receptor
Procedure: (§1) BIAcore analysis of human and mouse FcRn binding to Fc mutant #1 (Fc K392D-K409D, dimer), #2 (Fc K392D-K409D-Y349T, monomeric SEC profile) and #6 (Fc K392D-K409D-Y349T, monomeric SEC profile) using a BIAcore3000 instrument. CHO cell produced huFc was immobilized on follow cell 2 (Fc2) on a CM5 chip. Fc1 was used as background control. 2 nM human FcRn were incubated with 1, 10, 100 nM of indicated Fc variants for one hour before injected to the CHO huFc surface. Reduced binding of FcRn to the immobilized CHO huFc indicates binding of FcRn to the Fc variants in solution. 2 nM mouse FcRn were incubated with 0.1, 1, 10 nM of Fc variants for one hour before injected to the CHO huFc surface.

mouse FcRn = target: T2, mouse FcRn (mouse, UniProt Q61559 22-297; P01887 21-119, limits assumed); experiment: BIAcore solution competition (FIG. 6)
T2 sequence (looked up): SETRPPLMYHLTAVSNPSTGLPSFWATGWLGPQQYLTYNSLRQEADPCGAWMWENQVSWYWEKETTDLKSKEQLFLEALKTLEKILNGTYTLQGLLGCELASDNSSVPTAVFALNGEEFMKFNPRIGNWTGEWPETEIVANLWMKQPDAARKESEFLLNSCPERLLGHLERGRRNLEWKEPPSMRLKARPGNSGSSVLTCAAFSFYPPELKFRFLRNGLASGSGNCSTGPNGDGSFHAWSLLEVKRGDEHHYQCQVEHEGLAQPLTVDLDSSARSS
T2 sequence (b2m, looked up): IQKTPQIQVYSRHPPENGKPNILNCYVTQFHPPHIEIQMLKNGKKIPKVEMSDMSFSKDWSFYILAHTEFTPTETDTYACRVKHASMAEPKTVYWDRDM
Procedure: as §1

binding result (human FcRn): binds
binding result (mouse FcRn): binds
B1: hu IgG1 Fc K392D K409D Y349T (construct 2 of Table 2) (other, human, UniProt P01857-1 114-330, looked up, name in EU numbering)
chain: APELLGGPSVFLFPPKPKDTLMISRTPEVTCVVVDVSHEDPEVKFNWYVDGVEVHNAKTKPREEQYNSTYRVVSVLTVLHQDWLNGKEYKCKVSNKALPAPIEKTISKAKGQPREPQVTTLPPSRDELTKNQVSLTCLVKGFYPSDIAVEWESNGQPENNYDTTPPVLDSDGSFFLYSDLTVDKSRWQQGNVFSCSVMHEALHNHYTQKSLSLSPGK
notes: domain: Fc; Monomer by SEC and AUC; also called Fc mutant #2; Monomer Fc
